Reference: article PMC8980056, “RAGE-TXNIP axis drives inflammation in Alzheimer’s by targeting Aβ to mitochondria in microglia” (Cell Death & Disease, 2022)

Experiments:
[1] = molecular target: the molecule itself; test: native gel or EMSA; western blot of native gel of Drp1 tetramer in LPS-primed primary microglia, without and with 4 h of Aβ dimers
[2] = molecular target: the molecule itself; test: native gel or EMSA; western blot of native gel of DRP1 tetramer in hippocampus of wt and 5xFAD mice (also with siTXNIP)

Row | Protein | stoichiometry N [1] | stoichiometry N [2]
1 | Dynamin-Related Protein 1 (Drp1), endogenous in LPS-primed primary microglia (natural protein, UniProt Q8K1M6 1-736, looked up, Dynamin-Related Protein 1 (Drp1), endogenous in primary microglia; Precipitated with an anti-Drp1 antibody; seen as tetramer on a native gel; Mouse is only surmised for the primary microglia; see the supplementary methods; source: endogenous, LPS-primed primary microglia lysate) MEALIPVINKLQDVFNTVGADIIQLPQIVVVGTQSSGKSSVLESLVGRDLLPRGTGVVTRRPLILQLVHVSPEDKRKTTGEENGVEAEEWGKFLHTKNKLYTDFDEIRQEIENETERISGNNKGVSPEPIHLKVFSPNVVNLTLVDLPGMTKVPVGDQPKDIELQIRELILRFISNPNSIILAVTAANTDMATSEALKISREVDPDGRRTLAVITKLDLMDAGTDAMDVLMGRVIPVKLGIIGVVNRSQLDINNKKSVTDSIRDEYAFLQKKYPSLANRNGTKYLARTLNRLLMHHIRDCLPELKTRINVLAAQYQSLLNSYGEPVDDKSATLLQLITKFATEYCNTIEGTAKYIETSELCGGARICYIFHETFGRTLESVDPLGGLNTIDILTAIRNATGPRPALFVPEVSFELLVKRQIKRLEEPSLRCVELVHEEMQRIIQHCSNYSTQELLRFPKLHDAIVEVVTCLLRKRLPVTNEMVHNLVAIELAYINTKHPDFADACGLMNNNIEEQRRNRLARELPSAGSRDKSSKVPSALAPASQEPPPAASAEADGKLIQDNRRETKNVPSAGGGIGDGGQEPTTGNWRGMLKTSKAEELLAEEKSKPIPIMPASPQKGHAVNLLDVPVPVARKLSAREQRDCEVIERLIKSYFLIVRKNIQDSVPKAVMHFLVNHVKDTLQSELVGQLYKSSLLDDLLTESEDMAQRRKEAADMLKALQGASQIIAEIRETHLW | 4 | 
2 | Dynamin-Related Protein 1 (Drp1), endogenous in mouse hippocampus (natural protein, UniProt Q8K1M6 1-736, looked up, Dynamin-Related Protein 1 (Drp1), mouse, endogenous in the hippocampus of 5xFAD mice; Tetramer seen on a native gel; source: endogenous, hippocampus of 5xFAD mice) MEALIPVINKLQDVFNTVGADIIQLPQIVVVGTQSSGKSSVLESLVGRDLLPRGTGVVTRRPLILQLVHVSPEDKRKTTGEENGVEAEEWGKFLHTKNKLYTDFDEIRQEIENETERISGNNKGVSPEPIHLKVFSPNVVNLTLVDLPGMTKVPVGDQPKDIELQIRELILRFISNPNSIILAVTAANTDMATSEALKISREVDPDGRRTLAVITKLDLMDAGTDAMDVLMGRVIPVKLGIIGVVNRSQLDINNKKSVTDSIRDEYAFLQKKYPSLANRNGTKYLARTLNRLLMHHIRDCLPELKTRINVLAAQYQSLLNSYGEPVDDKSATLLQLITKFATEYCNTIEGTAKYIETSELCGGARICYIFHETFGRTLESVDPLGGLNTIDILTAIRNATGPRPALFVPEVSFELLVKRQIKRLEEPSLRCVELVHEEMQRIIQHCSNYSTQELLRFPKLHDAIVEVVTCLLRKRLPVTNEMVHNLVAIELAYINTKHPDFADACGLMNNNIEEQRRNRLARELPSAGSRDKSSKVPSALAPASQEPPPAASAEADGKLIQDNRRETKNVPSAGGGIGDGGQEPTTGNWRGMLKTSKAEELLAEEKSKPIPIMPASPQKGHAVNLLDVPVPVARKLSAREQRDCEVIERLIKSYFLIVRKNIQDSVPKAVMHFLVNHVKDTLQSELVGQLYKSSLLDDLLTESEDMAQRRKEAADMLKALQGASQIIAEIRETHLW |  | 4
